Assay results from article PMC4057782, “tRNA synthetase counteracts c-Myc to develop functional vasculature”.

Columns and labels:
SerRS delta T413-V420 = SerRS delta T413-V420 (Homo sapiens, UniProt P49591 1-514, del413-420); experiment: EMSA; binding abolished; EMSA: 20 mM Tris-HCl pH 8.0, 60 mM KCl, 5 mM MgCl2, 0.1 mg/ml BSA, 10 ng/ul poly(dG-dC), 1 mM DTT, 30 min, room temperature; SPR: 10 mM HEPES pH 7.4, 150 mM NaCl, 0.005% P-20; footprint: 20 mM HEPES pH 7.9, 120 mM KCl, 8 mM MgCl2, 0.2 mM EDTA, 0.5 mM DTT, 0.2 mg/ml BSA, 10 ug/ml poly(dG-dC), 5% glycerol, room temperature; details: protein: recombinant; chain copies: 2; label: 5' 32P
SerRS delta T413-V420, sequence (P49591 other isoform, or with tags, fused parts or gaps del413-420 | mutant): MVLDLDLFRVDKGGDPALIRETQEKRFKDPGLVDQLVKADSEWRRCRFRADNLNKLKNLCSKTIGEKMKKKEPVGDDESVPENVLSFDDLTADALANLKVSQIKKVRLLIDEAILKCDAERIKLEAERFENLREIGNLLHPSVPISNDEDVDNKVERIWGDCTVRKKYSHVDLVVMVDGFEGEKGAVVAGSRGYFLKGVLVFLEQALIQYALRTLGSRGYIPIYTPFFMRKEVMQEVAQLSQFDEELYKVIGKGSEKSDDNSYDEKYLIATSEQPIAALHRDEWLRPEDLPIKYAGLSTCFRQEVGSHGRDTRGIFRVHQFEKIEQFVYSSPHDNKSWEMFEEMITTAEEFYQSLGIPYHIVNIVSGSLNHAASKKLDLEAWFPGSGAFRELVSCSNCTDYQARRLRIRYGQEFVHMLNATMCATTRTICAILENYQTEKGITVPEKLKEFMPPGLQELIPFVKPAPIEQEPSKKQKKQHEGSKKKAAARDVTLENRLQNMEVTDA

SerRS delta V2-G14 = SerRS delta V2-G14 (Homo sapiens, UniProt P49591 1-514, del2-14); experiment: as above; details: protein: recombinant; chain copies: 2; label: 5' 32P
SerRS delta V2-G14, sequence (P49591 other isoform, or with tags, fused parts or gaps del2-14 | mutant): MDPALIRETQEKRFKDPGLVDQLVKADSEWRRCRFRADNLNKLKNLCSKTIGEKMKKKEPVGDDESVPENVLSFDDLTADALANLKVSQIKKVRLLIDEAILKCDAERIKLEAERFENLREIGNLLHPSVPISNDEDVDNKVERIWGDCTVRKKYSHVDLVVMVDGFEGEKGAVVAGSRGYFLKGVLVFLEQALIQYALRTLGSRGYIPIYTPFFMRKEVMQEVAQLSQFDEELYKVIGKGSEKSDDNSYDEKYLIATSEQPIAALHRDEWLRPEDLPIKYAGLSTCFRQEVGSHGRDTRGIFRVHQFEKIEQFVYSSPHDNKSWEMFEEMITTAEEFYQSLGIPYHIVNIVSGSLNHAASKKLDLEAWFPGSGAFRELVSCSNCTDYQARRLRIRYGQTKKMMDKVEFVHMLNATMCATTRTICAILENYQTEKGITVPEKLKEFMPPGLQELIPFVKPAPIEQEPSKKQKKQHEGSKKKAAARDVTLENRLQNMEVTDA

B1: VEGFA promoter 27-bp (-62 to -36) (dsDNA)
DNA 1: GGCGGGGCGGAGCCATGCGCCCCCCCC
DNA 2: GGGGGGGGCGCATGGCTCCGCCCCGCC
binding result (SerRS delta T413-V420): no binding
binding result (SerRS delta V2-G14): no binding
